In patent publication US7122363:

How the values were obtained:
[1] = target: 63 kDa bovine brain CaM-PDE (expression product of p12.3a cDNA) (bovine) (UniProt Q01061); experiment: cell-based or functional assay
[2] = target: 59 kDa bovine lung CaM-PDE (expression product of p59KCAMPDE-2 cDNA) (bovine) (UniProt P14100); experiment: cell-based or functional assay
Sequence of 59 kDa bovine lung CaM-PDE (expression product of p59KCAMPDE-2 cDNA) (bovine) (P14100 other isoform, or with tags, fused parts or gaps limits assumed): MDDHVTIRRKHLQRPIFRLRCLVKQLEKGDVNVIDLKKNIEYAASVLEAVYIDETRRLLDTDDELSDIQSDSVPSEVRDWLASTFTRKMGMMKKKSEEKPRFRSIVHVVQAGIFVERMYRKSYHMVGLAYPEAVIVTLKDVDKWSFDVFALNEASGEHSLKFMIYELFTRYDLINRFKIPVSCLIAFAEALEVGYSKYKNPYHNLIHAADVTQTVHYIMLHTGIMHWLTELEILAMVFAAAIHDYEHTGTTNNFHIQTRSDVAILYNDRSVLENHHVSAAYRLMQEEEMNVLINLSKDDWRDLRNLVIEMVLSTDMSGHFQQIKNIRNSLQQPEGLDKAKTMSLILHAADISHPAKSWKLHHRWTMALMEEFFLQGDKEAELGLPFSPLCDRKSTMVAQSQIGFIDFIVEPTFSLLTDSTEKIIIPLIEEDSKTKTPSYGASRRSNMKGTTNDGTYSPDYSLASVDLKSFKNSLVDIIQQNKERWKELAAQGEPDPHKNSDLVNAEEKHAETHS

Sequence of 63 kDa bovine brain CaM-PDE (expression product of p12.3a cDNA) (bovine) (Q01061 whole entry): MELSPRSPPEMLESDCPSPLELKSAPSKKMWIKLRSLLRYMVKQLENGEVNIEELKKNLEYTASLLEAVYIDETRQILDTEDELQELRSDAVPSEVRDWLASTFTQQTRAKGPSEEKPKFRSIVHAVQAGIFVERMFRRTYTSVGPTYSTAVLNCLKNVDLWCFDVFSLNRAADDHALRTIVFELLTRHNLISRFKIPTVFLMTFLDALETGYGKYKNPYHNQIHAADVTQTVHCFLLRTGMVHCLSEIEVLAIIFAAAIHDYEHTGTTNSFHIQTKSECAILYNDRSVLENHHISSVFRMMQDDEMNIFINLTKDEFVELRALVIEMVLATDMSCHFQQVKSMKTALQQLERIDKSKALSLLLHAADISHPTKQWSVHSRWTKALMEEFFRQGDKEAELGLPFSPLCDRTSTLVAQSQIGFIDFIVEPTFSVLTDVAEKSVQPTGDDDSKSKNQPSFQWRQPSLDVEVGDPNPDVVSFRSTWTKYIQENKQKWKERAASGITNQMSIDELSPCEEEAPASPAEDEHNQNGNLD

CaM-stimulated cAMP phosphodiesterase activity (homogenates of transfected COS-7 cells) [1]: 15 fold
CaM-stimulated cGMP phosphodiesterase activity (homogenates of transfected COS-7 cells) [1]: 12 fold
cAMP hydrolytic activity (extracts of transfected COS-7 cells, 2 uM cAMP) [2]: 4 to 5 fold
Substance: calmodulin
